# Data: PMC2943613 (Nucleic Acids Research, 2010)
# B1: Thermus thermophilus exonuclease I (TTHB178) (enzyme, Thermus thermophilus HB8, UniProt Q53VZ1 1-296, looked up)
# chain: MAFGVSHPVALDLEATSTDPSEAEVLEVAAVDGEGRVFHRYLATQRPLPPDHEVFQLTGIPYEEYEAKKVAPKEALEELLAFLGGRPLLGHNLLRYDLPLLQRHLEEAGLPRWQGEALDTLRLAHLLFPTPPGGLEGYRLGDLYAFLLGRPLEGAHRALNDAQATLAVFHRLLDRGRRALAQHPGLVRAWRELGLPEGHLFPEDEGLIKDLLAREADVEAFFVEKEGRPFPAPTDLGPDLLPKPRPAQRIKEFVQVAHGVAGQGLVGRERPLHEVLERGLRLAVGEAEEGAVEKEG
# Target: the molecule itself
# Test: SEC
protein,measurement,value
B1,stoichiometry N,2
